Data taken from patent US20110166062A1 (INDIANA UNIVERSITY RESEARCH AND TECHNOLOGY, published 2011).
Where no end group is shown, it is not given here. [ ]: non-standard residue; d: D form. The star is where a group is joined. Stearoyl = CCCCCCCCCCCCCCCCCC(=O)*; Palmitoyl = CCCCCCCCCCCCCCCC(=O)*; Myristoyl = CCCCCCCCCCCCCC(=O)*; Aib = CC(C)(N)C(=O)O

What was measured:
GLP-1 receptor = GLP-1 receptor (UniProt P43220 24-463, limits assumed); assay: cell-based or functional assay
GIP receptor = target: T1, GIP receptor (UniProt P48546 22-466); assay: cell-based or functional assay
T1 sequence (looked up): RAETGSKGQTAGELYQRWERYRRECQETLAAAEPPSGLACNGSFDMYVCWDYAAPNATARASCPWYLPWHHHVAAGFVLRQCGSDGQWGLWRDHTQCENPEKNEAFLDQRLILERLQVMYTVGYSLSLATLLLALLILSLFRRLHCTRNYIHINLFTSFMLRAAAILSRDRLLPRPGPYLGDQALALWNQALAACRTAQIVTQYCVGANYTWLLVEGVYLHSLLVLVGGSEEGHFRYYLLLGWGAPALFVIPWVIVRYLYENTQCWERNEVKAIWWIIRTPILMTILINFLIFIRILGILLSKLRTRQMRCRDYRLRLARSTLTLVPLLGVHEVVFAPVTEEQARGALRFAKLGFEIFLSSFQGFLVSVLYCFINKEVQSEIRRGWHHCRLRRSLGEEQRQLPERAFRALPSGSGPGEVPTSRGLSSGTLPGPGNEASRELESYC

B1: mt-279 (peptide)
peptide: Y[Aib]QGTFTSDYSIYLDKQAA[Aib]EFVNWLLAGGPSSGAPPPSK(Stearoyl)-NH2
modifications: N-terminus assumed
SMILES: CCCCCCCCCCCCCCCCCC(=O)NCCCC[C@H](NC(=O)[C@H](CO)NC(=O)[C@@H]1CCCN1C(=O)[C@@H]1CCCN1C(=O)[C@@H]1CCCN1C(=O)[C@H](C)NC(=O)CNC(=O)[C@H](CO)NC(=O)[C@H](CO)NC(=O)[C@@H]1CCCN1C(=O)CNC(=O)CNC(=O)[C@H](C)NC(=O)[C@H](CC(C)C)NC(=O)[C@H](CC(C)C)NC(=O)[C@H](Cc1c[nH]c2ccccc12)NC(=O)[C@H](CC(N)=O)NC(=O)[C@@H](NC(=O)[C@H](Cc1ccccc1)NC(=O)[C@H](CCC(=O)O)NC(=O)C(C)(C)NC(=O)[C@H](C)NC(=O)[C@H](C)NC(=O)[C@H](CCC(N)=O)NC(=O)[C@H](CCCCN)NC(=O)[C@H](CC(=O)O)NC(=O)[C@H](CC(C)C)NC(=O)[C@H](Cc1ccc(O)cc1)NC(=O)[C@@H](NC(=O)[C@H](CO)NC(=O)[C@H](Cc1ccc(O)cc1)NC(=O)[C@H](CC(=O)O)NC(=O)[C@H](CO)NC(=O)[C@@H](NC(=O)[C@H](Cc1ccccc1)NC(=O)[C@@H](NC(=O)CNC(=O)[C@H](CCC(N)=O)NC(=O)C(C)(C)NC(=O)[C@@H](N)Cc1ccc(O)cc1)[C@@H](C)O)[C@@H](C)O)[C@@H](C)CC)C(C)C)C(N)=O
EC50 (GLP-1 receptor): 4.6 pM
EC50 (GIP receptor): 4.5 pM

B2: mt-278 (peptide)
peptide: Y[Aib]QGTFTSDYSIYLDKQAA[Aib]EFVNWLLAGGPSSGAPPPSK(Palmitoyl)-NH2
modifications: N-terminus assumed
SMILES: CCCCCCCCCCCCCCCC(=O)NCCCC[C@H](NC(=O)[C@H](CO)NC(=O)[C@@H]1CCCN1C(=O)[C@@H]1CCCN1C(=O)[C@@H]1CCCN1C(=O)[C@H](C)NC(=O)CNC(=O)[C@H](CO)NC(=O)[C@H](CO)NC(=O)[C@@H]1CCCN1C(=O)CNC(=O)CNC(=O)[C@H](C)NC(=O)[C@H](CC(C)C)NC(=O)[C@H](CC(C)C)NC(=O)[C@H](Cc1c[nH]c2ccccc12)NC(=O)[C@H](CC(N)=O)NC(=O)[C@@H](NC(=O)[C@H](Cc1ccccc1)NC(=O)[C@H](CCC(=O)O)NC(=O)C(C)(C)NC(=O)[C@H](C)NC(=O)[C@H](C)NC(=O)[C@H](CCC(N)=O)NC(=O)[C@H](CCCCN)NC(=O)[C@H](CC(=O)O)NC(=O)[C@H](CC(C)C)NC(=O)[C@H](Cc1ccc(O)cc1)NC(=O)[C@@H](NC(=O)[C@H](CO)NC(=O)[C@H](Cc1ccc(O)cc1)NC(=O)[C@H](CC(=O)O)NC(=O)[C@H](CO)NC(=O)[C@@H](NC(=O)[C@H](Cc1ccccc1)NC(=O)[C@@H](NC(=O)CNC(=O)[C@H](CCC(N)=O)NC(=O)C(C)(C)NC(=O)[C@@H](N)Cc1ccc(O)cc1)[C@@H](C)O)[C@@H](C)O)[C@@H](C)CC)C(C)C)C(N)=O
EC50 (GLP-1 receptor): 4.2 pM
EC50 (GIP receptor): 2.8 pM

B3: mt-277 (peptide)
peptide: Y[Aib]QGTFTSDYSIYLDKQAA[Aib]EFVNWLLAGGPSSGAPPPSK(Myristoyl)-NH2
modifications: N-terminus assumed
SMILES: CCCCCCCCCCCCCC(=O)NCCCC[C@H](NC(=O)[C@H](CO)NC(=O)[C@@H]1CCCN1C(=O)[C@@H]1CCCN1C(=O)[C@@H]1CCCN1C(=O)[C@H](C)NC(=O)CNC(=O)[C@H](CO)NC(=O)[C@H](CO)NC(=O)[C@@H]1CCCN1C(=O)CNC(=O)CNC(=O)[C@H](C)NC(=O)[C@H](CC(C)C)NC(=O)[C@H](CC(C)C)NC(=O)[C@H](Cc1c[nH]c2ccccc12)NC(=O)[C@H](CC(N)=O)NC(=O)[C@@H](NC(=O)[C@H](Cc1ccccc1)NC(=O)[C@H](CCC(=O)O)NC(=O)C(C)(C)NC(=O)[C@H](C)NC(=O)[C@H](C)NC(=O)[C@H](CCC(N)=O)NC(=O)[C@H](CCCCN)NC(=O)[C@H](CC(=O)O)NC(=O)[C@H](CC(C)C)NC(=O)[C@H](Cc1ccc(O)cc1)NC(=O)[C@@H](NC(=O)[C@H](CO)NC(=O)[C@H](Cc1ccc(O)cc1)NC(=O)[C@H](CC(=O)O)NC(=O)[C@H](CO)NC(=O)[C@@H](NC(=O)[C@H](Cc1ccccc1)NC(=O)[C@@H](NC(=O)CNC(=O)[C@H](CCC(N)=O)NC(=O)C(C)(C)NC(=O)[C@@H](N)Cc1ccc(O)cc1)[C@@H](C)O)[C@@H](C)O)[C@@H](C)CC)C(C)C)C(N)=O
EC50 (GLP-1 receptor): 8.6 pM
EC50 (GIP receptor): 5.2 pM
